# Source: PMC10889901, “Deciphering the structure of a multi-drug resistant Acinetobacter baumannii short-chain dehydrogenase reductase” (PLOS ONE, 2024)
# B1: Acinetobacter baumannii short-chain dehydrogenase reductase (enzyme)
# chain: SNAMKLDLQNKIAVVSGSTSGIGLGIAKGLASAGATVVVVGRKQAGVDEAIAHIRQSVPEASLRGVDADLTTEQGAAALFAAEPKADILVNNLGIFNDEDFFSVPDEEWMRFYQVNVLSGVRLARHYAPSMVEQGWGRIIFISSESGVAIPGDMINYGVTKSANLAVSHGLAKRLAGTGVTVNAVLPGPTFTDGLENMLADAAAKAGRSTRDQADEFVKVLRPSSIIQRAAEVDEVANMVVYIASPLSSATSGAALRVDGGVVDTLV
# notes: residues of the vector printed after the TEV cleavage site (ENLYFQ/SNA), left on the protein after the tag is removed; short-chain dehydrogenase reductase (SDR) of Acinetobacter baumannii; Vector pMCSG21; one protomer in the asymmetric unit, the tetramer comes from crystal symmetry (PISA); also called SDR; SDR enzyme; source: E. coli BL21(DE3) pLysS, purified (HisTrap, TEV cleavage, Superdex …)
# Target: the molecule itself
# Experiment: crystal structure; hanging-drop vapour diffusion, 23°C, 0.2 M lithium sulphate monohydrate, 0.1 M TRIS hydrochloride pH 8.5, 30% PEG 8,000; single protomer in the asymmetric unit, tetramer found by PISA analysis of the crystal
protein,measurement,value
B1,stoichiometry N,4
